B1: SEQ ID NO: 3, where all natural tryptophans are replaced with 5-fluorotryptophans: unnatural analogue fragment of wtGBP, MDCC labeled (protein)
chain: DNFMSVVRKAIEQDAKAAPDVQLLMNDSQNDQSKQNDQIDVLLAKGVKALAINLVDPAAAGTVIEKARGQNVPVVFFNKEPSRKALDSYDKAYYVGTDSKESGIIQGDLIAKHWAANQGWDLNKDGQIQFVLLKGEPGHPDAEARTTYVIKELNDKGIKTEQLQLDTAMWDTAQAKDKMDAWLSGPNANKIEVVIANNDAMAMGAVEALKAHNKSSIPVFGVDALPEALALVKSGALAGTVLN
modifications: all Trp to 5-fluorotryptophan; MDCC label; E. Coli
notes: unnatural analogue fragment of wtGBP, MDCC labeled
B2: SEQ ID NO: 3, where all natural leucines are replaced with 5,5,5-trifluoroleucines: unnatural analogue fragment of wtGBP, MDCC labeled (protein)
chain: B1 chain
modifications: all Leu to 5,5,5-trifluoroleucine; MDCC label; E. Coli
notes: as for B1
B3: tGBP2: fragment of wtGBP from E. coli including amino acids 14-256 of SEQ ID NO: 1 (protein)
chain: B1 chain
modifications: E. Coli
B4: fragment containing amino acids 87-271: fragment containing amino acids 87-271 of wtGBP from E. coli (SEQ ID NO: 1) (protein)
chain: VVFFNKEPSRKALDSYDKAYYVGTDSKESGIIQGDLIAKHWAANQGWDLNKDGQIQFVLLKGEPGCPDAEARTTYVIKELNDKGIKTEQLQLDTAMWDTAQAKDKMDAWLSGPNANKIEVVIANNDAMAMGAVEALKAHNKSSIPVFGVDALPEALALVKSGALAGTVLNDANNQAKATFDLAKN
modifications: E. Coli

Legend:
Type in all cases: binding
[1] = Fragments of wtGBP in response to glucose: fluorescence quenching of labeled tGBPs; conditions: labeled tGBP 1×10^-7 M
Description: (§1) Once the PCR amplified gene fragments were obtained, they were inserted into expression vector pQE70. The constructed expression plasmids were then transformed into the auxotrophic strain of E. coli. Protein expression was performed using medium shift method. A single freshly transformed colony was used to inoculate 5 mL of M9 media supplemented with 0.4% glucose; 1 mM MgSO4; 0.1 mM CaCl2; 1 mM Thiamine; 0.1 volume of a solution containing 0.01% (w/v) each of 20 amino acids, less any amino acid that is to be replaced by unnatural amino acids (e.g., each of 19 amino acids where one is to be replaced); 40 μg/mL of the remaining amino acid(s) (e.g., 20th amino acid), and appropriate amount of antibiotic. T his culture was allowed to grow overnight at 37° C., 250 rpm. 500 mL culture containing the same ingredients was inoculated with the overnight grown 5 mL culture. This culture was then grown until the optical density (OD600) was about 0.5. The cells were then centrifuged at 10000 rpm for 10 min, 25° C., the supernatant was discarded and the cells were resuspended in a 0.9% NaCl solution for washing, and this was repeated three times. The cells were then resuspended in 500 mL M9 minimal media which was supplemented with 0.4% glucose, 1 mM MgSO4, 0.1 mM CaCl2, 1 mM Thiamine, 0.1 volume of a solution containing 0.01% (w/v) each of 20 amino acids less any amino acid(s) to be replaced by unnatural amino acids (e.g., 19 amino acids), appropriate amount of antibiotic, and grown at 37° C. for 30 min to further deplete natural amino acid that has to be replaced by the unnatural amino acid. 1 mM IPTG was then added with 0.1 mM of unnatural amino acid to the culture and was grown overnight at 37° C. The cells were harvested by centrifugation and the protein was purified using Ni-NTA resin since GBP mutant has His-tag. The purified protein was then labeled with fluorophore MDCC (N-[2-(1-maleimidyl(ethyl]-7-(diethylamino)coumarin-3-carboxamide), e.g., labeled at cysteine-152 of SEQ ID NO: 1.
Fragments of wtGBP in Response to Glucose. In order to check for activity of the labeled tGBPs, an assay was performed. Upon glucose binding, the proteins should undergo a conformational change, resulting in a change in the local environment of the fluorophore molecule, which leads to a change in the fluorescence signal observed. The assay was carried out by preparing glucose solutions of concentrations ranging from 1×10^−1M to 1×10^−6M. These glucose standards were then added to 180 μL samples of the labeled tGBPs at a concentration of 1×10^−7M. The resulting fluorescence intensity was measured. The results obtained from one study including the isolated polypeptide molecules of SEQ ID NO: 2 (tGBP1) and SEQ ID NO: 3 (tGBP2) are presented in Table C.

[2] = Unnatural analogues of wtGBP in response to glucose: fluorescence dose response; conditions: labeled protein 5×10^-7 M, glucose 10^-2 M-10^-8 M, 15 min, room temperature
Source text: Unnatural Analogues of wtGBP with Unnatural Tryptophans. Unnatural analogues of wtGBP from E. coli were produced, where natural tryptophans were replaced with unnatural tryptophans. Tryptophan auxotrophic strain of E. coli (#27873) was obtained. Plasmid placI and plasmid pQE70 containing the genetic sequence of the wtGBP mutated at 152 (containing a cysteine in this position for fluorophore attachment) were transformed into the tryptophan auxotrophic strain of E. coli. Protein expression was performed using medium shift method. A single freshly transformed colony was used to inoculate 5 mL of M9 media supplemented with 0.4% glucose, 1 mM MgSO4, 0.1 mM CaCl2, 1 mM Thiamine, 0.1 volume of a solution containing 0.01% (w/v) each of 18 amino acids (less Trp and Leu), 40 μg/mL Leu, 40 μg/mL Trp, 100 μg/mL Ampicillin, and 35 μg/mL Chloramphenicol.
This culture was allowed to grow overnight at 37° C., 250 rpm. 500 mL culture containing the same ingredients was inoculated with the overnight grown 5 mL culture. This culture was then grown till the optical density (OD600) was about 0.5. […]
Unnatural Analogues of wtGBP in Response to Glucose. […] Fluorescence of the samples was then measured using a Carry Eclipse Fluorimeter.

[3] = Fluorescence response to glucose of MDCC-labeled fragment amino acids 87-271 of wtGBP
Source text: Expression and Labeling of Isolated Polypeptide Molecules. In order to obtain the gene for insertion into an expression vector, PCR amplification was employed. Primers were designed to amplify isolated polypeptide molecules of interest, e.g., polypeptide molecules of SEQ ID NOS: 1-7, and a fragment including amino acids 87-271 of SEQ ID NO: 1.
as §1

Molecule	Percent Fluorescence Quenching ([1]; Glucose 1 × 10^-1 M)	Percent Fluorescence Quenching ([1]; Glucose 1 × 10^-2 M)	Percent Fluorescence Quenching ([1]; Glucose 1 × 10^-3 M)	Percent Fluorescence Quenching ([1]; Glucose 1 × 10^-4 M)	Percent Fluorescence Quenching ([1]; Glucose 1 × 10^-5 M)	Percent Fluorescence Quenching ([1]; Glucose 1 × 10^-6 M)	Change in fluorescence intensity with increasing concentrations of glucose [2]	other results
tGBP1: fragment of wtGBP from E. coli including amino acids 14-296 of SEQ ID NO: 1	20.37%	14.61%	7.5538%	2.433%	2.908%	−0.09539%		
B1							dose-dependent change in fluorescence intensities	
B2							dose-dependent change in fluorescence intensities	
B3	6.266%	7.502%	8.966%	5.874%	2.795%	1.748%		
B4								Fluorescence Intensity (AVG) ([3]; Glucose Concentration 0 M): 485.282; Fluorescence Intensity (AVG) ([3]; Glucose Concentration 1.00E-03 M): 468.792; Fluorescence Intensity (AVG) ([3]; Glucose Concentration 1.00E-04 M): 467.383; Fluorescence Intensity (AVG) ([3]; Glucose Concentration 1.00E-05 M): 478.877; Fluorescence Intensity (AVG) ([3]; Glucose Concentration 1.00E-06 M): 497.146; Fluorescence Intensity (AVG) ([3]; Glucose Concentration 1.00E-07 M): 463.041; Fluorescence Intensity (AVG) ([3]; Glucose Concentration 1.00E-08 M): 442.682; Response to glucose (trend of fluorescence) ([3]; glucose 0 to 1.00E-03 M): large error and no clear trend in response to glucose
